Test results taken from patent US20170067091.
Read-outs that look alike come from different tables or passages of the source.

Experiments:
[1] = test system: Immunoglobulin E (human myeloma IgE) (Homo sapiens); details: nominal Kd, no asymptote reached; described as negligible binding; fluorescence bead binding assay
[2] = test system: Immunoglobulin E (human myeloma IgE) (Homo sapiens); details: fluorescence bead binding assay, 30 min incubation, wash, thermal elution at 95 C; monovalent binding assumed; enriched pool, individual sequences not given

For “GCCTGTTGTGAGCCTCCTGTCGAANNNNNNNNNNNNNNNNNNNNNNNNNNNNNNNNNNNNNNNNNNNNNTTGAGCGTTTATTCTTGTCTCCC [randomized 45N library]”, the Kd [1] was 0.62 µM.

“GCCTGTTGTGAGCCTCCTGTCGAANNNNNNNNNNNNNNNNNNNNNNNNNNNNNNNNNNNNNNNNNNNNNTTGAGCGTTTATTCTTGTCTCCC [round-4 enriched IgE aptamer pool]” showed a Kd [2] of 0.012 µM.
